Measured values as given in article doi:10.1101/2025.09.13.676036.

Legend:
[1] = target: Thermocrinis minervae double ferritin-like protein (Thermocrinis minervae); assay: SEC-MALS
[2] = target: Thermocrinis minervae double ferritin-like protein (Thermocrinis minervae); assay: SEC-SAXS
[3] = target: Caldanaerovirga acetigignens double ferritin-like protein (Caldanaerovirga acetigignens); assay: SEC-MALS

| Substance | stoichiometry N [1] | stoichiometry N [2] | stoichiometry N [3] |
| --- | --- | --- | --- |
| Thermocrinis minervae double ferritin-like protein (enzyme) | 2 | 2 | – |
| Caldanaerovirga acetigignens double ferritin-like protein (enzyme) | – | – | 2 |
